T1: human TNFR2 (Novoprotein, Cat #C830) (human, UniProt P20333 23-257, limits assumed)
T1 construct: construct not described; also called human TNFR2 protein
T1 sequence (looked up): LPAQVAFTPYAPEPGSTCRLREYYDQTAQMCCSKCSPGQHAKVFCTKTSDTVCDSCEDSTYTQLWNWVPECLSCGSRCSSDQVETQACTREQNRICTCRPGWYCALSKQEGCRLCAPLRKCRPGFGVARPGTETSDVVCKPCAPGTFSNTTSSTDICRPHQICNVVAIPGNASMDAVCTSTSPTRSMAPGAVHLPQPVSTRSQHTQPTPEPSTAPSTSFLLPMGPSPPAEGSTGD

T2: human TNFR2 on the surface of CHO-TNFR2 cells (human, UniProt P20333 23-461)
T2 construct: whole, on cells
T2 sequence (looked up): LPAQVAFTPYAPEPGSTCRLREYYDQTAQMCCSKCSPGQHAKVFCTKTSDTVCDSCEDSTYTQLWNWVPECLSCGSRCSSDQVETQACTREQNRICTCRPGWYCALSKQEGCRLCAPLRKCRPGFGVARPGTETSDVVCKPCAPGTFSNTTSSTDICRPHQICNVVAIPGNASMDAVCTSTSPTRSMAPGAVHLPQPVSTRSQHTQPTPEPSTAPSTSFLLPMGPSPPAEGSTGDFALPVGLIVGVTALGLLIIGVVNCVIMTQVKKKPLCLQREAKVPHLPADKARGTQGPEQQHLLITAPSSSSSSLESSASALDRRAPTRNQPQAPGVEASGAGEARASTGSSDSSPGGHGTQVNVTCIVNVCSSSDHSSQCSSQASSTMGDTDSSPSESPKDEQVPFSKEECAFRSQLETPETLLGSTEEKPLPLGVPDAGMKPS


Legend:
[1] = target: T1, human TNFR2 (Novoprotein, Cat #C830); experiment: competition ELISA: antibody titrated against human TNFα-Biotin on coated human TNFR2 (Novoprotein), detection with Streptavidin-HRP [panel C]
Procedure: (§1) 1 μg/ml human TNFR2 (Novoprotein, Cat #C830) was pre-coated with 100 μl/well […] in an ELISA plate. All the test TNFR2 antibodies were subjected to 2.5-fold gradient dilution from the highest concentration of 30 μg/ml; the diluted antibodies were mixed with 15 ng/ml human TNFα-Biotin (Acro Biosystem, Cat #TNA-H82E3) in equal volume, respectively; the resulting mixture was added to the ELISA plate at 100 μl/well, and incubated with shaking at room temperature for 2.0 hours. The plate was washed, and then a Streptavidin-HRP working solution (diluted at 1:10000) was added at 100 μl/well, and the mixture was incubated with shaking at room temperature for 40 minutes. The plate was washed again, and then the substrate TMB of HRP was added to develop colour. A stop solution was added to stop the reaction, and then a microplate reader (MD 13) was used to read the absorbance value. The inhibitory curve of an antibody was drawn with antibody concentration as the abscissa and corresponding OD value as the ordinate, and fitted with four parameters (GraphPad Prism9) to calculate the IC50 value. The smaller the IC50 value, the stronger the ability of an antibody to inhibit the binding of human TNFα to human TNFR2. The blocking effect of a humanized antibody was normalized to its corresponding human-murine chimeric antibody WT. […]

[2] = target: T2, human TNFR2 on the surface of CHO-TNFR2 …; experiment: flow cytometry competition: antibody titrated on CHO-TNFR2 cells, then human TNFα-biotin, detection with PE-streptavidin [panel A]
Procedure: CHO stable cells highly expressing human TNFR2 were used for the experiment (the same as CHO-TNFR2 in Example 4). The CHO-TNFR2 cells were digested, washed twice with DPBS, then stained with Live/Dead (L/D) (20 minutes at room temperature), and plated at a density of 1×10⁵ cells/50 μl/well. A test anti-TNFR2 antibody was diluted to 6 μg/ml with a staining buffer as the starting concentration: the antibody was subjected to 3.33-fold gradient dilution, with a total of 7 concentration points. The diluted antibody was added to the plated cells at 50 μl/well, and the mixture was mixed well by gentle pipetting, and incubated at 4° C. for 30 minutes. Then the diluted 100 ng/ml of human TNFα-biotin was added at 100 μl/well, and the mixture was mixed well by gentle pipetting, and then incubated at 4° C. for 30 minutes. The mixture was washed twice with a staining buffer, and then 0.12 μg/ml PE-streptavidin (BioLegend, Cat #405204) was added at 100 μl/well; the resulting mixture was incubated at 4° C. for 30 minutes. The mixture was washed twice with a staining buffer, and then 150 μl of staining buffer was added to resuspend the cells; signals were detected by a flow cytometer (Thermo Attune NxT). […]

[3] = target: T1, human TNFR2 (Novoprotein, Cat #C830); experiment: competition ELISA: antibody titrated against human TNFα-Biotin on coated human TNFR2 (Novoprotein), detection with Streptavidin-HRP [panel A]
Procedure: as §1

Row | IC50 (read off the curve) [1] | IC50 (read off the curve) [2] | IC50 (read off the curve) [3] | Binder
1 | ~0.5 µg/mL |  |  | 224-WT (antibody, V domains shown, Human-murine chimeric wild-type molecule; also called human-murine chimeric antibody WT of #224) VH: EVQLQESGPEIVKPGASVKLSCTASGFNNKDIYMHWVKQRPEQGLEWIGRIDPATGNTKHDPKFQDKATLSSDTSSNTAYLQFSSLTSEDTAVYYCAHSPYGDFGAMDYWGQGTTVTVSS VL: DIQMTQSPAIMSASLGERVTMTCTASSSVSSNYLHWYQQKPGSSPKLWIYSTSNLPSGVPARFSGSGSGTSYSLTISSMEAEDAATYYCHQYHRSPWTFGGGTKLEIK
2 |  | ~0.09 µg/mL | ~0.6 µg/mL | 001-WT (antibody, V domains shown, Human-murine chimeric wild-type molecule; also called human-murine chimeric antibody WT of #001) VH: EVQLQESGGGLVQPGGSLNLSCAASGFAFSTYDLSWVRQTPEKRLEWVAYINNGGISTYYSDTVKGRFTISRDNAKNTLYLQMSSLKSEDTAMYYCVRGPFYGSANYFDYWGQGTTVTVSS VL: EIVMTQSPASLSLSVGETVTITCRTSESIYSNLPWYQQKQGKSPQLLVYDATKLAEGVPSRFSGSESGTQYSLKINSLQSEDFGTYYCQHFWVTPWTFGGGTKLEIK

Reference: patent US20240109974A1 (SHANDONG SIMCERE BIOPHARMACEUTICAL, published 2024)
